Data reported in patent publication EP2468767B1 (dated 2007).

Molecular target: the molecule itself
Test: gel filtration on Superdex 200 HR

B1: IR485 (human insulin receptor residues 1-485 with enterokinase site and c-myc tag) (receptor)
chain: HLYPGEVCPGMDIRNNLTRLHELENCSVIEGHLQILLMFKTRPEDFRDLSFPKLIMITDYLLLFRVYGLESLKDLFPNLTVIRGSRLFFNYALVIFEMVHLKELGLYNLMNITRGSVRIEKNNELCYLATIDWSRILDSVEDNYIVLNKDDNEECGDICPGTAKGKTNCPATVINGQFVERCWTHSHCQKVCPTICKSHGCTAEGLCCHSECLGNCSQPDDPTKCVACRNFYLDGRCVETCPPPYYHFQDWRCVNFSFCQDLHHKCKNSRRQGCHQYVIHNNKCIPECPSGYTMNSSNLLCTPCLGPCPKVCHLLEGEKTIDSVTSAQELRGCTVINGSLIINIRGGNNLAAELEANLGLIEEISGYLKIRRSYALVSLSFFRKLRLIRGETLEIGNYSFYALDNQNLRQLWDWSKHNLTITQGKLFFHYNPKLCLSEIHKMEEVSGTKGRQERNDIALKTNGDQASCENELLKFSYIRTSFDKISDDDDKEQKLISEEDLN
binding result: binds
